From patent publication US20040001835A1, “Prevention or treatment of cancer using integrin alphavbeta3 antagonists in combination with other agents” (MedImmune, Inc., priority 2002, published 2004)
Entries after “also recorded” stand apart in the source; their conditions may differ. Read-outs that look alike come from different tables or passages of the source.

Key:
[1] = biological target: T1, human β3 Mutant A (E171Q) (Homo sapiens, UniProt P05106, E197Q); assay: FACS analysis of HEK293 transfectants, human β3 containing rat residues; format: binding; details: flow cytometry
T1 construct: expressed in transfected cells; host or cells: HEK293
T1 sequence (P05106 27-788 E197Q): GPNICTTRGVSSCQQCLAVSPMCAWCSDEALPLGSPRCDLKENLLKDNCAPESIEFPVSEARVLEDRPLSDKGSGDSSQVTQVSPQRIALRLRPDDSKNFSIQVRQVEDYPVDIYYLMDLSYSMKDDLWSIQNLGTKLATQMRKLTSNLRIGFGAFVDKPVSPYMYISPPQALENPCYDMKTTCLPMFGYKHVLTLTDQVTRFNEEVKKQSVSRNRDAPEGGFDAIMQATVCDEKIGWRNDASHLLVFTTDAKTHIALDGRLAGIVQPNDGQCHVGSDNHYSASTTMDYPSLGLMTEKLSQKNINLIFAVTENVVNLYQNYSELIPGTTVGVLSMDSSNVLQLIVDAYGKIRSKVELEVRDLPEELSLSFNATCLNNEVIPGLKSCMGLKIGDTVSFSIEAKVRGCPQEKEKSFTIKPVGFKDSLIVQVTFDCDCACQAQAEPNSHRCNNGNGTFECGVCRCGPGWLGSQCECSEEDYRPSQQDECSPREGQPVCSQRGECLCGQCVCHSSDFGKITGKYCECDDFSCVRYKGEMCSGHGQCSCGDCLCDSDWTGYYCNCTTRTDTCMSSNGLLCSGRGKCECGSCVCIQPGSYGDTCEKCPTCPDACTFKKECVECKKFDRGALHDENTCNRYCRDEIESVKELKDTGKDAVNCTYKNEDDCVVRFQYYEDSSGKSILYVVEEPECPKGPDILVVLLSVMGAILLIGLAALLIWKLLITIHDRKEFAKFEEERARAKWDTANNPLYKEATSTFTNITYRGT
T1 sequence (P06756 31-889 partner limits assumed): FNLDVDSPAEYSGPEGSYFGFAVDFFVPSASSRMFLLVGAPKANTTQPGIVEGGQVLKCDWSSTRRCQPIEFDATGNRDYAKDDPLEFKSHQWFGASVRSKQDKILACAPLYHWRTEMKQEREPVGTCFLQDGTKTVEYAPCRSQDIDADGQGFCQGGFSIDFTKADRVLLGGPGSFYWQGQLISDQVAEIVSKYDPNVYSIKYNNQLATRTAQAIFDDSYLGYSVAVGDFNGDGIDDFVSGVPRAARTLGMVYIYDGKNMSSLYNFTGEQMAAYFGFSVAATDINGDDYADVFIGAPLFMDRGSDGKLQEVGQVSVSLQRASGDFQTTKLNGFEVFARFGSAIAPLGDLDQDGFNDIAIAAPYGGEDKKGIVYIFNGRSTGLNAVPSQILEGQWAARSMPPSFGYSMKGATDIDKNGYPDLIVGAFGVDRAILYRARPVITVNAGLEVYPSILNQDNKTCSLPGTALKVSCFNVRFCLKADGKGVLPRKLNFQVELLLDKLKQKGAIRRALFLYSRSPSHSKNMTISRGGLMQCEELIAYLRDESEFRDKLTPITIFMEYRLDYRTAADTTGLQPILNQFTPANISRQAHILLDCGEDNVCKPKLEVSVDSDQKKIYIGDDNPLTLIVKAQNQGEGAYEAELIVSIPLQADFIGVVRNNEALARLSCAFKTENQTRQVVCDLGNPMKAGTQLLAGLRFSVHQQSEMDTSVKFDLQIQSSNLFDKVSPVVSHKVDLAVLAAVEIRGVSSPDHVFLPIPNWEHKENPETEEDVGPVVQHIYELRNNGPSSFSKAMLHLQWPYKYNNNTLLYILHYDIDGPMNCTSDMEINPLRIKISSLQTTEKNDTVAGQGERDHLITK
T1 sequence (P06756 891-1048 partner limits assumed): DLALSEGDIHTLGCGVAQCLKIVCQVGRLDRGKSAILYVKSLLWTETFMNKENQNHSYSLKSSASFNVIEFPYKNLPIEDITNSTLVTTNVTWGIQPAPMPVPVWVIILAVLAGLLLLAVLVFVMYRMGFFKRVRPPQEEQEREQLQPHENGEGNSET
Description: (§1) FIG. 4. Binding of Integrin αvβ3 specific antibodies to human β3 containing rat residues.
(§2) Sequence comparison of residues 164 to 202 of β3 integrins from different species and design of mutations. To further characterize the binding epitope of Vitaxin®, the gene encoding β3 was cloned and sequenced from hamster cDNA. The amino acids in the region previously proposed to contain the LM609 binding epitope are shown above (dashed lines depict conserved residues). To determine which residues in the human sequence were essential for antibody binding, the amino acids shown in color were mutated to the corresponding rat residues. The resulting genes were transfected to HEK293 cells which express endogenous human αv. Resulting cell lines were analyzed by flow cytometry for antibody binding.
(§3) This protocol is used to assess the surface expression of integrins in HEK-293 cells transfected with various Integrin subunits. Primary antibodies bound to the integrins are detected by fluorochrome-conjugated secondary antibodies and analyzed by flow cytometry.
(§4) 1. Wash adherent cells twice with 5 ml of PBS.
(§5) 2. Add 1.5 ml of trypsin solution or cell dissociation solution, incubate at 37_C. foir 2 min.
(§6) 3. Add 3 ml of culture medium or FACs buffer to the plate and loosen cells from the plate by pipetting. Count cells. Resuspend cells in FACs buffer at 5×10^6 per ml.
(§7) 4. Transfer an aliquot of 5×10^5 cells (100 μl) into microfuge tubes containing 10 μg mouse IgG or human IgG. Incubate cells for 20 min at RT to block IgG receptor sites. Note: use mouse IgG for blocking when using human primary mAb; use human IgG for blocking when using mouse primary mAb.
(§8) 5. Add […] of Vitaxin®, or other primary mAb, and incubate for 20 min at RT.
(§9) 6. Wash twice with 500 μl of FACS buffer, spinning cells at 1500 rpm for 5 minutes.
(§10) 7. Add 0.5 mg of goat anti-human IgG Alexa 488, or other secondary antibodies, and incubate for 20 min at RT.
(§11) 8. Wash twice with 500 μl FACS buffer, spinning cells at 1500 rpm for 5 minutes.
(§12) 9. Resuspend in 500 μl buffer for FACS analysis.
(§13) 10. Use unstained cells for background. For negative control, use secondary antibody alone.

[2] = biological target: T2, human β3 Mutant ABC (E171Q L173I E174K D179T T182S) (Homo sapiens, UniProt P05106, D205T/E197Q/E200K/L199I/T208S); assay: as above; format: binding; details: flow cytometry
T2 construct: expressed in transfected cells; host or cells: HEK293
T2 sequence (P05106 27-788 E197Q/L199I/E200K/D205T/T208S): as the sequence (P05106 27-788 E197Q) above, with L173I, E174K, D179T, T182S counted along it
T2 sequence (P06756 31-889 partner limits assumed): as the sequence (P06756 31-889 partner limits assumed) above
T2 sequence (P06756 891-1048 partner limits assumed): as the sequence (P06756 891-1048 partner limits assumed) above
Description: as §1, §2, §3, §4, §5, §6, §7, §8, §9, §10, §11, §12, §13

[3] = biological target: T3, human β3 Mutant B (L173I E174K) (Homo sapiens, UniProt P05106, E200K/L199I); assay: as above; format: binding; details: flow cytometry
T3 construct: expressed in transfected cells; host or cells: HEK293
T3 sequence (P05106 27-788 L199I/E200K): as the sequence (P05106 27-788 E197Q) above, with Q171E, L173I, E174K counted along it
T3 sequence (P06756 31-889 partner limits assumed): as the sequence (P06756 31-889 partner limits assumed) above
T3 sequence (P06756 891-1048 partner limits assumed): as the sequence (P06756 891-1048 partner limits assumed) above
Description: as §1, §2, §3, §4, §5, §6, §7, §8, §9, §10, §11, §12, §13

[4] = biological target: T4, human β3 Mutant A + C (E171Q D179T T182S) (Homo sapiens, UniProt P05106, D205T/E197Q/T208S); assay: as above; format: binding; details: flow cytometry
T4 construct: expressed in transfected cells; host or cells: HEK293
T4 sequence (P05106 27-788 E197Q/D205T/T208S): as the sequence (P05106 27-788 E197Q) above, with D179T, T182S counted along it
T4 sequence (P06756 31-889 partner limits assumed): as the sequence (P06756 31-889 partner limits assumed) above
T4 sequence (P06756 891-1048 partner limits assumed): as the sequence (P06756 891-1048 partner limits assumed) above
Description: as §1, §2, §3, §4, §5, §6, §7, §8, §9, §10, §11, §12, §13

Rabbit αvβ3 = assay: 125-labeled Vitaxin binding affinities and number of binding sites on cell lines; details: for Kd: read-out: Kp
Description: (§14) ^125-labeled Vitaxin® was used to determine binding affinities and number of binding sites for human, rabbit and hamster cell lines. The affinity of Vitaxin® for hamster αvβ3 was approximately 2-3 fold lower than human αvβ3 while its affinity for rabbit αvβ3 was about 4-10 fold lower than human αvβ3.

hamster αvβ3 = assay: as above
Description: as §14

human αvβ3 = biological target: T5, human αvβ3 (Homo sapiens, UniProt P05106); assay: as above; details: for Kd: read-out: Kp
T5 construct: endogenous in cells; host or cells: M21 melanoma, HMVEC, HUVEC
T5 sequence (P05106 27-788): as the sequence (P05106 27-788 E197Q) above, with Q171E counted along it
T5 sequence (P06756 31-889 partner limits assumed): as the sequence (P06756 31-889 partner limits assumed) above
T5 sequence (P06756 891-1048 partner limits assumed): as the sequence (P06756 891-1048 partner limits assumed) above
Description: as §14

[5] = Human HUVEC primary endothelium

effect of Mutation A (Glu to Gln at position 171) on antibody binding [1]: disrupts binding
effect of Mutation B (Leu, Glu to Ile, Lys at positions 173 and 174) on antibody binding [3]: disrupt binding
Binding Sites (human αvβ3; [5]): 8.1 × 10^4
Kd (human αvβ3; [5]): 3.3 nM
Binding Sites (human αvβ3; Human M21 melanoma): 1.3 × 10^5
Kd (human αvβ3; Human M21 melanoma): 2.2 nM
B1: Vitaxin®: humanized blocking monoclonal antibody that binds Integrin αVβ3 (MEDI-522, MedImmune); humanized and optimized version of LM609 (antibody, chains of the INN, looked up, V domains shown)
VH: QVQLVESGGGVVQPGRSLRLSCAASGFTFSSYDMSWVRQAPGKGLEWVAKVSSGGGSTYYLDTVQGRFTISRDNSKNTLYLQMNSLRAEDTAVYYCARHLHGSFASWGQGTTVTVSS
VL: EIVLTQSPATLSLSPGERATLSCQASQSISNFLHWYQQRPGQAPRLLIRYRSQSISGIPARFSGSGSGTDFTLTISSLEPEDFAVYYCQQSGSWPLTFGGGTKVEIK
effect of changing all three regions (A, B and C) to rat residues on antibody binding [2]: disrupt binding; also recorded: completely eliminate binding
effect of Mutations A and C combined on antibody binding [4]: disrupts binding; also recorded: eliminated binding
Kd (Rabbit αvβ3; Rabbit RK1 kidney epithelium): 23 nM
Kd (Rabbit αvβ3; Rabbit VX7 carcinoma): 8.9 nM
affinity for rabbit αvβ3, fold lower than human αvβ3 (Rabbit αvβ3; rabbit vs human cell lines): 4-10 fold
Kd (hamster αvβ3; Hamster CCL-49 melanoma, read-out: Kp): 6.9 nM
affinity for hamster αvβ3, fold lower than human αvβ3 (hamster αvβ3; hamster vs human cell lines): 2-3 fold
